The text below walks through data of the Immune Epitope Database (IEDB).

Where only a bound is given, the exact number is not on record here.

The target in one assay is HLA-A*23:01. The assay is described as follows: IEDB peptide-MHC binding, purified MHC/competitive/radioactivity; filed as Kd, often an IC50 or EC50 that approximates it; ≥ and ≤ were set here for values at or beyond the usual limits of such assays.
Assay [1] deals with HLA-A*24:02. Described as above.
For the next assay, the target named is HLA-B*44:03. The assay is described as above.
Assay [2] deals with HLA-B*44:02. Described as above.
For the next assay, the target named is HLA-A*02:01. The assay is described as follows: IEDB peptide-MHC binding, purified MHC/competitive/fluorescence; ≥ and ≤ were set here for values at or beyond the usual limits of such assays.
The target in assay [3] is HLA-A*24:02. The description is as above.
The target in a further assay is HLA-B*18:01. As to the kind of experiment: IEDB peptide-MHC binding, purified MHC/direct/fluorescence; filed as Kd, often an IC50 or EC50 that approximates it; ≥ and ≤ were set here for values at or beyond the usual limits of such assays.
The target in assay [4] is HLA-B*44:02. Described as above.
The target in another assay is HLA-B*08:01. The assay is described as follows: IEDB peptide-MHC binding, purified MHC/competitive/radioactivity; filed as Kd, often an IC50 or EC50 that approximates it; ≥ and ≤ were set here for values at or beyond the usual limits of such assays.
A further assay concerns the target HLA-B*07:02. The assay is described as above.
The next assay addresses HLA-A*30:02. The assay is described as above.
In another assay the target is HLA-A*01:01. The assay is described as above. The note with it: source organism: Dengue virus 4 Philippines/H241/1956.
The target of a further assay is HLA-B*15:01. The description is as above.
Another assay addresses HLA-A*02:06. Described as above. Conditions: source organism: Dengue virus 2 Jamaica/1409/1983.
A further assay concerns the target HLA-B*40:01. The assay is described as follows: IEDB peptide-MHC binding, purified MHC/direct/fluorescence; filed as Kd, often an IC50 or EC50 that approximates it; ≥ and ≤ were set here for values at or beyond the usual limits of such assays. The note with it: source organism: Amur virus.
Where [5] appears, read: source organism: Dengue virus 1 Brazil/97-11/1997.
The mark [6] stands for this setting: source organism: Sudan ebolavirus.
Setting [7] is: source organism: Dengue virus 3 Martinique/1243/1999.
Setting [8] is: source organism: Zaire ebolavirus.
[9] abbreviates: source organism: Vaccinia virus WR.
The mark [10] stands for this setting: source organism: Dengue virus 4 Philippines/H241/1956.
Setting [11] is: source organism: Vaccinia virus Copenhagen.
[12] abbreviates: source organism: Dengue virus 2 Jamaica/1409/1983.

For orientation: Kd means the constant that tells how readily two partners part at equilibrium. As to LWTTLLSLTF, the figures for the Kd with HLA-A*23:01 (setting [5]) and with HLA-A*24:02 [1] (setting [5]) were 20.6 nM and 14.3 nM, respectively.
In the case of NEHKSTWHY, the Kd stood at 173 nM in the assay with HLA-B*44:03 (setting [5]) and 84.1 nM with HLA-B*44:02 [2] (setting [5]).
As for NEMVLLTMK, the Kd in the assay with HLA-B*44:02 [2] (setting [5]) came to 865 nM.
Regarding NEVHTWTEQ, the Kd with HLA-B*44:03 (setting [5]) stood at 6680 nM.
What is called IC50 is the concentration at which inhibition is half-maximal. High values mean weaker potency, low ones greater potency. For the sequence NITDKINQI, the figures for the IC50 with HLA-A*02:01 (setting [6]) and with HLA-A*24:02 [3] (setting [6]) were 43700 nM and 5960 nM, respectively.
On to QEGAMHTAL, for which the Kd is 39.5 nM in the assay with HLA-B*18:01 (source organism: Dengue virus) and 6660 nM with HLA-B*44:02 [4] (source organism: Dengue virus).
In the assay with HLA-A*24:02 [3] (setting [6]), QHNAAGIAW gave an IC50 of 21200 nM.
Take QKEGVFHTMW: the results for the Kd with HLA-B*44:03 (setting [7]) and with HLA-B*44:02 [2] (setting [7]) were 411 nM and 181 nM, respectively.
For the sequence RFEVKKRDG, the values for the IC50 with HLA-A*02:01 (setting [8]) and with HLA-A*24:02 [3] (setting [8]) were no less than 568000 nM and no less than 81100 nM, respectively.
On to RLKMDKLEL, for which the Kd with HLA-B*08:01 (setting [7]) was determined as 556 nM.
For the sequence RNIARHLAL, in the assay with HLA-B*08:01 (setting [9]), the Kd came to 3.24 nM.
For RPMFAVGLL, the Kd with HLA-B*07:02 (setting [5]) came to 5.06 nM.
Regarding RPQPMEHKY, the dissociation constant Kd in the assay with HLA-A*30:02 (setting [5]) was found to be 134 nM.
For RPTPTGTVMD, the Kd with HLA-B*07:02 (setting [7]) is 41.5 nM.
As for RRLTSREVLL, in the assay with HLA-B*08:01 (setting [5]), the Kd turned out to be 5480 nM.
As to RSMPGTRRVM, in the assay with HLA-B*07:02 (setting [7]), the Kd was determined as 91.9 nM.
On to RTPQDNQLIY, for which the Kd with HLA-A*01:01 amounted to 919 nM; with HLA-A*30:02 (setting [10]), 198 nM.
As to SARGLCAHI, the Kd with HLA-B*15:01 (setting [9]) stood at 1220 nM.
On to SFEEMYRHI, for which the IC50 with HLA-A*24:02 [3] (setting [8]) came to 6110 nM.
With SFRRFVNKL, in the assay with HLA-B*08:01 (setting [11]), the Kd worked out at 1380 nM.
Sequence SGTETKITF showed an IC50 with HLA-A*24:02 [3] (setting [11]) of 11300 nM.
Regarding SIILEFFLI, the figures for the Kd in the assay with HLA-A*02:06 and with HLA-A*24:02 [1] (setting [12]) were 1.59 nM and 1250 nM, respectively.
Consider SLIYLCTFM, for which, in the assay with HLA-B*15:01 (setting [9]), the Kd was found to be 4.45 nM.
Consider SLKIMIQSM, for which the Kd with HLA-B*08:01 (setting [9]) worked out at 2.48 nM.
For SMKYLMLLF, in the assay with HLA-B*15:01 (setting [9]), the Kd is 3.84 nM.
For SPMPRHHSI, in the assay with HLA-B*08:01 (setting [9]), the Kd stood at 1110 nM.
The same measure, in the same setting: as for SRRYRCSFA, the figure is 52.3 nM.
As for SSQVKCCHY, in the assay with HLA-B*15:01 (setting [9]), the Kd worked out at 347 nM.
Sequence SYGEYQSYS registered an IC50 in the assay with HLA-A*24:02 [3] (setting [8]) of 52300 nM.
On to TEQMAPHHKI, for which the Kd with HLA-B*44:02 [2] (setting [10]) turned out to be 41.7 nM.
For TLGYCMIRW, the IC50 with HLA-A*24:02 [3] (setting [9]) is no less than 105000 nM.
For TSGKYFSTF, the Kd in the assay with HLA-B*15:01 (setting [11]) was determined as 85.9 nM.
As to TTIRYQATG, in the assay with HLA-A*24:02 [3] (setting [8]), the IC50 worked out at 58300 nM.
As for VHSQGREAA, the IC50 is 40400 nM with HLA-A*02:01 (setting [8]) and 1900 nM with HLA-A*24:02 [3] (setting [8]).
For the sequence VLLDYGLHG, in the assay with HLA-B*15:01 (setting [9]), the dissociation constant (Kd) is no less than 27500 nM.
As to VPLQWIASA, the Kd in the assay with HLA-B*07:02 (source organism: Dengue virus 3 Sri Lanka/1266/2000) was found to be 178 nM.
In the case of VRSETKQKF, the IC50 in the assay with HLA-A*24:02 [3] (source organism: Vaccinia virus) turned out to be 1820 nM.
As to WQQVPFCSH, the Kd with HLA-B*15:01 (setting [5]) came to 102 nM.
In the case of WYAQIQPHW, the Kd is 62.1 nM in the assay with HLA-A*23:01 (setting [12]) and 24.3 nM with HLA-A*24:02 [1] (setting [12]).
Regarding YECETYKEL, the figures for the dissociation constant (Kd) with HLA-B*18:01 (source organism: Amur virus), with HLA-B*44:02 [4] (source organism: Amur virus) and in the assay with HLA-B*40:01 were 5.3 nM, no less than 20000 nM and 14.8 nM, respectively.
On to YGANYFLQI, for which the Kd in the assay with HLA-B*15:01 (setting [9]) is 1760 nM.
Consider YLFIRKNVI, for which the Kd in the assay with HLA-B*08:01 (setting [11]) was 0.706 nM.
Regarding YQVKTETTIL, in the assay with HLA-B*15:01 (setting [10]), the Kd was determined as 43.1 nM.
